System: Bacillus subtilis
Test: cleaved RNA product abundance (RNA/gDNA barcode ratio) relative to median wild-type variant (ratio to wild type); higher = more accumulation of the downstream cleavage product
Protocol: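 MPRA in B. subtilis. Mutagenized RNase Y cleavage-site regions (9% mutation rate) were inserted into a barcoded reporter mRNA (truncated aprE or tetM). Cells were grown in LB at 37°C to OD600 0.3. The cleaved RNA isoform was gel-purified and its barcodes counted; the RNA:gDNA barcode ratio was normalised to the median wild-type variant, and the median over barcodes is reported per variant. The printed sequence is the variable window only; the reporter flanks are not printed.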

[1] = experiment (reporter, strain, medium): exp 2b: truncated aprE reporter, strain BJT200, cleavage site: cggR-gapA (positions -7 to +36 mutated)
[2] = experiment (reporter, strain, medium): exp 4a: truncated aprE reporter, strain BJT201 with 2% xylose (RNase J1 expressed), cleavage site: cggR-gapA (positions -7 to +36 mutated)
[3] = experiment (reporter, strain, medium): exp 8a: truncated aprE reporter, strain BJT201 with 2% xylose (RNase J1 expressed), cleavage site: glnRA (positions -5 to +31 mutated)
[4] = experiment (reporter, strain, medium): exp 6: tetM reporter, strain 168, cleavage site: cggR-gapA (positions -7 to +36 mutated)

ACAGACGAAGGAGCCGCAAAGAAGTAATTAAAGGATGAATAATCCCTCAATATAAATATCTCTCACTTATTTAAA
cleaved RNA product abundance [1]: 0.101 | cleaved RNA product abundance [2]: 0.105

ACAGACGAAGGAGCCGCAAAGAAGTTATTAAGGGATGAATAATCGCTCAAAATAAATATCTCTCACTTATTTAAA
cleaved RNA product abundance [2]: 0.116

ACAGACGAAGGAGCCGCAAAGAAGTTATTAAGGGATGATTAATCCTTCAATATAAATATCTCTCACTTATTTAAA
cleaved RNA product abundance [1]: 0.306 | cleaved RNA product abundance [2]: 0.469

CGACATGTCCCGCTTCTTTCATTAATCCGTTAGCAACTGTTTTGCTATATAGATTTACCCTTTAAGAGGAGGAAT
cleaved RNA product abundance [3]: 0.684

CGACATGTCCCGCTTCTTTCATTAATCCGTTAGCAATCGTTTTGCTATATACATTTACCTTTTAAGAGGAGGAAT
cleaved RNA product abundance [3]: 1.11

CGACATGTCCCGCTTCTTTCATTAATCCGTTAGCAACTGTTTTGCTATATACCTTTACCTTTTAAGAGGAGGAAT
cleaved RNA product abundance [3]: 0.283

CGACATGTCCCGCTTCTTTCATTATTCCGTTAGCAATTGTTTTGCTATATACATTTACCTTTTAAGAGGAGGAAT
cleaved RNA product abundance [3]: 1.83

CGACATGTCCCGCTTCTTTCATTAATCCGTTAGCAACTGTTTTGCTATAAACATTTACCTTTTAAGAGGAGGAAT
cleaved RNA product abundance [3]: 0.603

ACAGACGAAGGAGCCGCAAAGATGTTATTAAGGGATGAATAATCCCTCACTATAAATATCTCTCACTTATTTAAA
cleaved RNA product abundance [1]: 0.166

ACAGACGAAGGAGCCGCAAAGAATTTAATAAGGGATGAATAATCCCTCAATATAAATATCTCTCACTTATTTAAA
cleaved RNA product abundance [1]: 0.25 | cleaved RNA product abundance [2]: 0.309

ACAGACGAAGGAGCCGCAAAGAAGTTATTAAGGGATAAATAATCCCACAATATAAATATCTCTCACTTATTTAAA
cleaved RNA product abundance [1]: 0.253 | cleaved RNA product abundance [2]: 0.356

ACAGACGAAGGAGCCGCAAAGAAGAAATTAAGGGATGAATAATCCCTCAATATAAATATCTCTCACTTATTTAAA
cleaved RNA product abundance [1]: 0.171 | cleaved RNA product abundance [2]: 0.185

ACAGACGAAGGAGCCGCAAAGAAGTTATTAAGGGATGAAATATCCCTCAATATAAATATCTCTCACTTATTTAAA
cleaved RNA product abundance [2]: 0.586

CGACATGTCCCGCTTCTTTCATTAATCTGTTAGCAACTGTTTTGCTATATAAATTTACCTTTTAAGAGGAGGAAT
cleaved RNA product abundance [3]: 0.994

ACAGACGAAGGAGCCGCAAAGAAGTTATTAGGGGATTAATAATCCCTCAATATAAATATCTCTCACTTATTTAAA
cleaved RNA product abundance [2]: 0.866

ACAGACGAAGGAGCCGCAAAGAAGTTATTAAGTGATGACTAATCCCTCAATATAAATATCTCTCACTTATTTAAA
cleaved RNA product abundance [1]: 0.081 | cleaved RNA product abundance [2]: 0.111

CGACATGTCCCGCTTCTTTCATTAATCCGTTAGCAACTGTTTTGCTATATACATTTATCTTTTAAGAGGAGGAAT
cleaved RNA product abundance [3]: 1.27

CGACATGTCCCGCTTCTTTCATTAATCCGTTAGCAACTTTTTTGCTATATTCATTTACCTTTTAAGAGGAGGAAT
cleaved RNA product abundance [3]: 0.521

ACAGACGAAGGAGCCGCAAAGAAGATATTAAGGGATGATTAATCCCTCAATATAAATATCTCTCACTTATTTAAA
cleaved RNA product abundance [2]: 0.803

ACAGACGAAGGAGCCGCAAAGAAGTTATTAAGGGATGAATAATCCCTCAACAAAAATATCTCTCACTTATTTAAA
cleaved RNA product abundance [1]: 0.105

CGACATGTCCCGCTTCTTTCATTATTCCGTTAGCAACTGTTTTGCTATATACATTAACCTTTTAAGAGGAGGAAT
cleaved RNA product abundance [3]: 1.44

ACAGACGAAGGAGCCGCAAAGAAGTTGTTAAGGGATAAATAATCCCTCAATATAAATATCTCTCACTTATTTAAA
cleaved RNA product abundance [1]: 0.279 | cleaved RNA product abundance [2]: 0.688

ACAGACGAAGGAGCCGCAAGAAGTTATTAGGGGATGAATAATCCCTCAATATAAATATCTCTCACTTATTTAAAG
cleaved RNA product abundance [2]: 0.817

ACAGACGAAGGAGCCGCAAAGAAGTTATTAAGGTATGCATAATCCCTCAATATAAATATCTCTCACTTATTTAAA
cleaved RNA product abundance [2]: 0.126

ACAGACGAAGGAGCCGCAAAGAAGTTATTAAGGGATGAATAATCCCTCAATATAAATGTCTCTCACTTATTTAAA
cleaved RNA product abundance [1]: 0.498 | cleaved RNA product abundance [2]: 0.636 | cleaved RNA product abundance [4]: 0.546

CGACATGTCCCGCTTCTTTCATTAATCCCTTAGCAACTGTTTTGCTATATATATTTACCTTTTAAGAGGAGGAAT
cleaved RNA product abundance [3]: 0.163

ACAGACGAAGGAGCCGCAAAGAAGTTATTAAGGGATGAATAATCCCTCAACATAAACATCTCTCACTTATTTAAA
cleaved RNA product abundance [2]: 0.215

ACAGACGAAGGAGCCGCAAAGTAGTTATTAAAGGATGAATAATCCATCAATATAAATATCTCTCACTTATTTAAA
cleaved RNA product abundance [2]: 0.153

CGACATGTCCCGCTTCTTTCATTAATCCGTCCGCAACTGTTTTGCTATATACATTTACCTTTTAAGAGGAGGAAT
cleaved RNA product abundance [3]: 0.264

ACAGACGAAGGAGCCGCACAGATGTTATTAAGGGATGAATAATCCCTCAATATAAATATCTCTCACTTATTTAAA
cleaved RNA product abundance [2]: 1.11

ACAGACGAAGGAGCCGCAAAGAAATTATTAAGGGATTAATAATCCCTCAATATAAATATCTCTCACTTATTTAAA
cleaved RNA product abundance [1]: 0.978 | cleaved RNA product abundance [2]: 0.912

ACAGACGAAGGAGCCGCAAAGAAGTTATCATGGGATGAATAATCCCTCAATATAAATATCTCTCACTTATTTAAA
cleaved RNA product abundance [2]: 0.262

ACAGACGAAGGAGCCGCAAAGAAGTTATGAAGGGACGAATAATCCCTCAATATAAATATCTCTCACTTATTTAAA
cleaved RNA product abundance [2]: 0.318

ACAGACGAAGGAGCCGCATAGAAGTTATTAAGGGATGAATAATCACTCAATATAAATATCTCTCACTTATTTAAA
cleaved RNA product abundance [1]: 0.134 | cleaved RNA product abundance [2]: 0.166

CGACATGTCCCGCTTCTTTCATTACTCCGTTAGCAACTGTTTTACTATATACATTTACCTTTTAAGAGGAGGAAT
cleaved RNA product abundance [3]: 0.792

ACAGACGAAGGAGCCGCAAAGAAGTTACTAAGGGATGAACAATCCCTCAATATAAATATCTCTCACTTATTTAAA
cleaved RNA product abundance [2]: 0.266

ACAGACGAAGGAGCCGCAAAGAATTTATTAAGGGATGAATAATCCCTCAATATAAATGTCTCTCACTTATTTAAA
cleaved RNA product abundance [2]: 0.282

ACAGACGAAGGAGCCGCAAAGAAGTGACTAAGGGATGAATAATCCCTCAATATAAATATCTCTCACTTATTTAAA
cleaved RNA product abundance [2]: 0.344

CGACATGTCCCGCTTCTTTCATTAATACGTTAGCAACTGTTTTTCTATATACATTTACCTTTTAAGAGGAGGAAT
cleaved RNA product abundance [3]: 0.455

ACAGACGAAGGAGCCGCAAAGAAGTTATTAAGGTATGAATAATCCCTCAATACAAATATCTCTCACTTATTTAAA
cleaved RNA product abundance [1]: 0.0986

ACAGACGAAGGAGCCGCTAAGTAGTTATTAAGGGATGAATAATCCCTCAATATAAATATCTCTCACTTATTTAAA
cleaved RNA product abundance [2]: 1.27

ACAGACGAAGGAGCCGCAAAGAAGTTATTAAAGGATAAATAATCCCTCAATATAAATATCTCTCACTTATTTAAA
cleaved RNA product abundance [1]: 0.108 | cleaved RNA product abundance [2]: 0.139

ACAGACGAAGGAGCCGCAATGAAGTTTTTAAGGGATGAATAATCCCTCAATATAAATATCTCTCACTTATTTAAA
cleaved RNA product abundance [2]: 0.578

ACAGACGAAGGAGCCGCACAGAAGTTATTAAGGGATGAATAATCCCTCAATATAAATATCTCTCACTTATTTAAA
cleaved RNA product abundance [1]: 0.962 | cleaved RNA product abundance [2]: 1.04 | cleaved RNA product abundance [4]: 1.07

ACAGACGAAGGAGCCGCAAACAAGTTATTAAGGGATGAATAATTCCTCAATATAAATATCTCTCACTTATTTAAA
cleaved RNA product abundance [2]: 0.422

ACAGACGAAGGAGCCGCAAAGAAGTTATTAAGGGAAGAATAATCCCTCAACATAAATATCTCTCACTTATTTAAA
cleaved RNA product abundance [1]: 0.133 | cleaved RNA product abundance [2]: 0.257

CGACATGTCCCGCTTCTTTCATTAATCCGTTAGCAACTTTTTTGCTATATACATATACCTTTTAAGAGGAGGAAT
cleaved RNA product abundance [3]: 2.12

ACAGACGAAGGAGCCGCAAAGAAGTTATTAAGGGATGAATAATCCTTAAATATAAATATCTCTCACTTATTTAAA
cleaved RNA product abundance [2]: 0.581

ACAGACGAAGGAGCCGCAAAGAAGTTATTACGGGATGAATAAGCCCTCAATATAAATATCTCTCACTTATTTAAA
cleaved RNA product abundance [1]: 0.189

CGACATGTCCCGCTTCTTTCATTAATCCGTTAGCAACTGTTTAGCTATATACATTTACCTTTTAAGAGGAGGAAT
cleaved RNA product abundance [3]: 0.537

ACAGACGAAGGAGCCGCAAAGAAGTTTTTAAGGGATGACTAATCCCTCAATATAAATATCTCTCACTTATTTAAA
cleaved RNA product abundance [1]: 0.201 | cleaved RNA product abundance [2]: 0.212

ACAGACGAAGGAGCCGCAAATAAGTTATAAAGGGATGTATAATCCCTCAATATAAATATCTCTCACTTATTTAAA
cleaved RNA product abundance [1]: 0.384

CGACATGTCCCGCTTCTTTCATTAATCCGTAAGCAACTGTTTTGTTATATACATTTACCTTTTAAGAGGAGGAAT
cleaved RNA product abundance [3]: 0.391

ACAGACGAAGGAGCCGCAAAGAAGTAATTAAGGGATGAATAATCCCTCAATATAATTATCTCTCACTTATTTAAA
cleaved RNA product abundance [1]: 0.151 | cleaved RNA product abundance [2]: 0.199

ACAGACGAAGGAGCCGCATAGAAGTTATTAAGGGATGAATAATACCTCAATATAAATATCTCTCACTTATTTAAA
cleaved RNA product abundance [1]: 0.115 | cleaved RNA product abundance [2]: 0.179

ACAGACGAAGGAGCCGCAAGAAGTTATTAAGGGATGAATAATCCCTCAATATAAATATCTCTCACTTATTTAAAG
cleaved RNA product abundance [1]: 1.27 | cleaved RNA product abundance [2]: 0.931

ACAGACGAAGGAGCCGCAAAGAAGTTATTAAGGGATGAATAACCCTTCAATATAAATATCTCTCACTTATTTAAA
cleaved RNA product abundance [2]: 0.346

ACAGACGAAGGAGCCGCAAAGAAGTTATTAAGGGATGAAAAATCCGTCAATATAAATATCTCTCACTTATTTAAA
cleaved RNA product abundance [2]: 0.355

Reference: the supplement of paper PMC11780869
